Data reported in the supplement of paper PMC10567573.

B1: OR10K2 (parent)
chain: SLARLQQLLFVIFLLLYLFTLGTN
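Note: lentivirally expressed fusions sorted by FACS into six bins by GFP to DsRed ratio, PSI derived from sequencing read proportions per bin multiplied by bin number.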

Variants of: B1
Experiment: protein stability index of a GFP-peptide fusion (GPS, HEK-293T) (PSI 1-6); higher = more stable
Conditions: c terminus: a fixed tail appended
SLAREQQLLFVIFLLLYLFTLGTN showed a protein stability index of 2.27. SLARHQQLLFVIFLLLYLFTLGTN gave a protein stability index of 2.62. SLARKQQLLFVIFLLLYLFTLGTN showed a protein stability index of 2.85. For SLARSQQLLFVIFLLLYLFTLGTN, the protein stability index was 3.05. Work on SLARFQQLLFVIFLLLYLFTLGTN yielded a protein stability index of 2.59. SLARVQQLLFVIFLLLYLFTLGTN showed a protein stability index of 2.44. Variant SLARCQQLLFVIFLLLYLFTLGTN has a protein stability index of 3.1. Variant SLARNQQLLFVIFLLLYLFTLGTN has a protein stability index of 2. In the case of SLARLQQLLFVIALLLYLFTLGTN, the protein stability index is reported as 2.44. SLARLQQLLFVIHLLLYLFTLGTN showed a protein stability index of 2.96. Work on SLARLQQLLFVIQLLLYLFTLGTN yielded a protein stability index of 3.04. With SLARLQQLLFVIYLLLYLFTLGTN the protein stability index was 3.74. In the case of SLARLQQLLFVIFLLLYLFTLGDN, the protein stability index is reported as 1.44. SLALLQQLLFVIFLLLYLFTLGTN gave a protein stability index of 3.28. Work on SLADLQQLLFVIFLLLYLFTLGTN yielded a protein stability index of 1.62. Variant SLAHLQQLLFVIFLLLYLFTLGTN has a protein stability index of 2.36. With SLAKLQQLLFVIFLLLYLFTLGTN the protein stability index was 2.19. With SLASLQQLLFVIFLLLYLFTLGTN the protein stability index was 2.62. Variant SLAYLQQLLFVIFLLLYLFTLGTN has a protein stability index of 2.57. SLARLQQLLFVIFLQLYLFTLGTN gave a protein stability index of 2.4. With SLARLQQLLFVIFLTLYLFTLGTN the protein stability index was 2.62. In the case of SLARLQQLLFVIFLLLYLFTLKTN, the protein stability index is reported as 2.48. SLARLQQLLFVIFLLLYLFTLCTN showed a protein stability index of 2.65. SLARLQQLLFFIFLLLYLFTLGTN showed a protein stability index of 2.58. With SLARLQQLLFSIFLLLYLFTLGTN the protein stability index was 1.85. Variant SLARLQQLLFHIFLLLYLFTLGTN has a protein stability index of 2.61. For SLARLQQLLFVIFLLLYLITLGTN, the protein stability index was 1.51. For SLARLQQLLFVIFLLLYLFTLGTI, the protein stability index was 2.75. With SLARLQQLLFVIFLLLYLFTLGTT the protein stability index was 2.4. Work on SLARLQQLLFVIFFLLYLFTLGTN yielded a protein stability index of 2.64. With SYARLQQLLFVIFLLLYLFTLGTN the protein stability index was 2.34. SMARLQQLLFVIFLLLYLFTLGTN showed a protein stability index of 2.45. In the case of SSARLQQLLFVIFLLLYLFTLGTN, the protein stability index is reported as 2.94. Variant SQARLQQLLFVIFLLLYLFTLGTN has a protein stability index of 2.62. With SNARLQQLLFVIFLLLYLFTLGTN the protein stability index was 3.77. Variant SLARLQWLLFVIFLLLYLFTLGTN has a protein stability index of 1.58. For SLARLQFLLFVIFLLLYLFTLGTN, the protein stability index was 1.79. For SLARLQSLLFVIFLLLYLFTLGTN, the protein stability index was 2.11. With SLARLQELLFVIFLLLYLFTLGTN the protein stability index was 2.69. SLARLQALLFVIFLLLYLFTLGTN gave a protein stability index of 1.91. SLARLQNLLFVIFLLLYLFTLGTN gave a protein stability index of 3.21. In the case of SLARLQMLLFVIFLLLYLFTLGTN, the protein stability index is reported as 2.14. In the case of SLARLQGLLFVIFLLLYLFTLGTN, the protein stability index is reported as 3.23. SLARLQQPLFVIFLLLYLFTLGTN gave a protein stability index of 3.32. Variant SLARLQQCLFVIFLLLYLFTLGTN has a protein stability index of 3.24. Work on SLARLQQELFVIFLLLYLFTLGTN yielded a protein stability index of 1.9. SLARLQQSLFVIFLLLYLFTLGTN gave a protein stability index of 2.86. SLARLQQFLFVIFLLLYLFTLGTN showed a protein stability index of 2.88. SLARLQQYLFVIFLLLYLFTLGTN showed a protein stability index of 3.36. SLARLQQVLFVIFLLLYLFTLGTN gave a protein stability index of 2.17. Work on SLARLQQGLFVIFLLLYLFTLGTN yielded a protein stability index of 2.92. With SLARLQQALFVIFLLLYLFTLGTN the protein stability index was 1.98. Work on SLARLQQNLFVIFLLLYLFTLGTN yielded a protein stability index of 2.24. For SLARLQQLLFVKFLLLYLFTLGTN, the protein stability index was 3.69. In the case of SLARLQQLLFVHFLLLYLFTLGTN, the protein stability index is reported as 2.02. For SLARLQQLLFVPFLLLYLFTLGTN, the protein stability index was 3.58. SLARLQQLLFVEFLLLYLFTLGTN gave a protein stability index of 1.78. In the case of SLARLQQLPFVIFLLLYLFTLGTN, the protein stability index is reported as 3.06. With SLARLQQLLFVIFLLLYDFTLGTN the protein stability index was 1.64. In the case of SLARLQQLLFVIFLLLYIFTLGTN, the protein stability index is reported as 2.73. For SLARLQQLLFVIFLLLYSFTLGTN, the protein stability index was 2.25. With SLARLQQLLFVIFLLLYGFTLGTN the protein stability index was 2.29. In the case of SLARLQQLLIVIFLLLYLFTLGTN, the protein stability index is reported as 4.24. For SLARLQQLLQVIFLLLYLFTLGTN, the protein stability index was 2.22. For SLARLQQLLTVIFLLLYLFTLGTN, the protein stability index was 3.08. For SLARLQQLLRVIFLLLYLFTLGTN, the protein stability index was 3.34. For SLARLQQLLVVIFLLLYLFTLGTN, the protein stability index was 2.29. Variant SLARLQQLLFVIFLLLYLFNLGTN has a protein stability index of 3.75. For SLARLQQLLFVIFLLLYLFFLGTN, the protein stability index was 3.51. For SLARLQQLLFVIFLLLYLFMLGTN, the protein stability index was 1.29. For SLFRLQQLLFVIFLLLYLFTLGTN, the protein stability index was 1.86. In the case of SLLRLQQLLFVIFLLLYLFTLGTN, the protein stability index is reported as 2.75. SLQRLQQLLFVIFLLLYLFTLGTN gave a protein stability index of 3.09. SLRRLQQLLFVIFLLLYLFTLGTN showed a protein stability index of 1.76. For SLWRLQQLLFVIFLLLYLFTLGTN, the protein stability index was 2.23. SLGRLQQLLFVIFLLLYLFTLGTN showed a protein stability index of 1.49. Work on RLARLQQLLFVIFLLLYLFTLGTN yielded a protein stability index of 2.11. TLARLQQLLFVIFLLLYLFTLGTN showed a protein stability index of 2.85. Variant KLARLQQLLFVIFLLLYLFTLGTN has a protein stability index of 2.87. Work on FLARLQQLLFVIFLLLYLFTLGTN yielded a protein stability index of 1.35. With WLARLQQLLFVIFLLLYLFTLGTN the protein stability index was 1.59. Work on GLARLQQLLFVIFLLLYLFTLGTN yielded a protein stability index of 2.86. QLARLQQLLFVIFLLLYLFTLGTN showed a protein stability index of 2.21. For SLARLQQLLFVIFLLLFLFTLGTN, the protein stability index was 1.68. Variant SLARLQQLLFVIFLLLLLFTLGTN has a protein stability index of 2.34. Work on SLARLQQLLFVIFLLLCLFTLGTN yielded a protein stability index of 2.72. SLARLWQLLFVIFLLLYLFTLGTN gave a protein stability index of 2.2. With SLARLEQLLFVIFLLLYLFTLGTN the protein stability index was 3.01. Work on SLARLTQLLFVIFLLLYLFTLGTN yielded a protein stability index of 2.68. Work on SLARLDQLLFVIFLLLYLFTLGTN yielded a protein stability index of 3.29. SLARLKQLLFVIFLLLYLFTLGTN gave a protein stability index of 3.25. With SLARLYQLLFVIFLLLYLFTLGTN the protein stability index was 2.6. In the case of SLARLAQLLFVIFLLLYLFTLGTN, the protein stability index is reported as 2.61. With SLARLQQLLFVIFLLLYLFTTGTN the protein stability index was 3.5.
